From patent US12194057B2, “NXTAR-derived oligonucleotides and uses thereof” (Washington University, priority 2020, dated 2025) come the findings set out here.

One data set has as its target T1, purified EZH2 (Homo sapiens, UniProt Q15910).
T1 construct: made in house
The experiment in a line: EZH2 pull-down assay with purified 6xHis-tagged EZH2. Type of data set: binding. The note with it: immobilized on streptavidin beads. The protocol: 1 mg of lysate prepared from HEK293 cells transfected with 6λHis-tagged-EZH2 plasmid was incubated with Ni-NTA agarose beads (Qiagene) overnight at 4° C. Beads were washed three times using wash buffer (20 mM Tris/HCl, 200 mM NaCl, 5 mM imidazole; pH 7.5) and purified EZH2 was eluted using elution buffer (20 mM Tris/HCl, 200 mM NaCl, 200 mM imidazole; pH 7.5).
LncRNA-Protein binding study was performed as described earlier (see e.g., Zhao, Wang, and Hu (2021) Methods Mol Bio). Briefly, 10 pmol Biotinylated NXTAR-N5 oligo or Biotinylated Globin oligos were diluted in 40 ul RNA structure buffer, heated at 90° C. for 2 min, immediately transferred onto ice for 2 min and then kept at RT for further 20 mins. 10 uM of purified EZH2 protein was added to these biotinylated oligos with 500 ul of NETN buffer and the tubes were placed at 4° C. for 2 hrs. Post washing with cold NETN buffer, streptavidin magnetic beads (60 ul) were added into prepared oligo-protein mix and incubated at 4° C. overnight. Beads were washed 3 times with NETN buffer, followed by western blot analysis. […]

In another data set the test system is VCaP and 22Rv1 cells. The experiment in a line: Proliferation assay, viable cells by trypan blue exclusion. Type of data set: cell-based, human. The protocol: (§1) NXTAR-N5 oligonucleotide was synthesized by IDT, and the oligonucleotide sequence is provided in TABLE 1 and FIG. 7C (* represents phosphorothioate bond modifications to avoid degradation by exonucleases). Equal numbers of VCaP and 22Rv1 cells were transfected with NXTAR-N5 or globin-derived oligonucleotide using X-tremeGENE360 (Sigma-Aldrich, Cat #08724121001), and the number of live cells was counted 96 h post-transfection using trypan blue exclusion method (Sigma, Cat #T8154). RNA was prepared from these cells, and qRT-PCR [SYBR PremixEx Taq II (Tli RNase H Plus)ROX, Clontech Takara, Cat #RR82LR] for AR and AR-V7 was performed as described earlier (see e.g., Mahajan et al. (2017) Cancer Cell).
The 22Rv1, VCaP, or LNCaP cells were retrovirally infected with control or NXTAR vectors and selected in puromycin medium containing 5% charcoal-stripped serum. Equal numbers of selected cells were seeded in 6-well plates followed by treatment with either (R)-9b, enzalutamide (Selleck Chemicals, Cat #S1250), or abiraterone (Selleck Chemicals, Cat #52246), and the number of viable cells was counted by trypan blue exclusion assay.

In a further data set the test system is AR. Nature of the data set: qRT-PCR of AR and AR target gene expression in prostate cancer cells. The class given is cell-based, human. The protocol: as §1
Cells were transfected, infected or treated [(R)-9b; EPZ6438, TargetMol, Cat #T1788] accordingly. RNA was used for cDNA preparation using High-Capacity cDNA Reverse Transcription Kit (Thermo Scientific Cat #4368814). Resulting cDNA was then analyzed by qPCR using an Applied Biosystems 7900 Real-Time PCR System (Thermo Scientific) and SYBR Green PCR Master Mix [SYBR PremixEx Taq II (Tli RNase H Plus) ROX, Clontech Takara, Cat #RR82LR] according to the manufacturers' instructions. Dissociation curves were generated for each plate to verify the integrity of the primers. The relative expression of RNAs was calculated using the comparative Ct or standard curve method. 18S rRNA or actin were used as internal controls.
(In general: Quantitative PCR measures a nucleic acid by following its amplification.)

The test system of the next data set is VCaP cells. Nature of the data set: Xenograft of VCaP cells infected with pBABE vector or NXTAR in SCID mice. Type of data set: in vivo. The procedure: All animal experiments were performed using the standards for humane care in accordance with the National Institutes of Health Guide for the Care and Use of Laboratory Animals. Mice breeding and colony maintenance were performed according to IACUC protocols approved by Washington University in St. Louis. 1.5×10^6 VCaP cells were suspended in 200 μL of PBS with 50% Matrigel (Corning, Cat #354428) and implanted subcutaneously into the dorsal flank of castrated 6-week-old male SCID mice (Charles River, Strain code: 236). Once the tumors reached approximately 100 mm^3, mice were randomized and injected subcutaneously with (R)-9b mesylate salt suspended in 6% Captisol (Cydex Pharmaceuticals). Tumor volumes were measured twice weekly using calipers. At the end of the study, all mice were humanely euthanized and tumors were extracted and weighed. To assess the role of NXTAR in tumor growth, 1.5×10^6 VCaP cells that were either infected with pBABE vector or NXTAR and selected with puromycin (Gibco, Cat #A1113803), implanted and growth of tumors was recorded. The personnel taking tumor volume measurement were blinded for the treatment groups.
To examine the direct effect of NXTAR restoration on prostate tumor growth, equal numbers of VCaP infected with either pBABE vector or NXTAR constructs were injected in the SCID mice. Palpable tumors were formed around week 5 that were measured twice a week thereafter.

The mark [1] stands for this setting: 22Rv1 and VCaP cells infected with retroviral NXTAR construct.

T1 sequence (Q15910 whole entry): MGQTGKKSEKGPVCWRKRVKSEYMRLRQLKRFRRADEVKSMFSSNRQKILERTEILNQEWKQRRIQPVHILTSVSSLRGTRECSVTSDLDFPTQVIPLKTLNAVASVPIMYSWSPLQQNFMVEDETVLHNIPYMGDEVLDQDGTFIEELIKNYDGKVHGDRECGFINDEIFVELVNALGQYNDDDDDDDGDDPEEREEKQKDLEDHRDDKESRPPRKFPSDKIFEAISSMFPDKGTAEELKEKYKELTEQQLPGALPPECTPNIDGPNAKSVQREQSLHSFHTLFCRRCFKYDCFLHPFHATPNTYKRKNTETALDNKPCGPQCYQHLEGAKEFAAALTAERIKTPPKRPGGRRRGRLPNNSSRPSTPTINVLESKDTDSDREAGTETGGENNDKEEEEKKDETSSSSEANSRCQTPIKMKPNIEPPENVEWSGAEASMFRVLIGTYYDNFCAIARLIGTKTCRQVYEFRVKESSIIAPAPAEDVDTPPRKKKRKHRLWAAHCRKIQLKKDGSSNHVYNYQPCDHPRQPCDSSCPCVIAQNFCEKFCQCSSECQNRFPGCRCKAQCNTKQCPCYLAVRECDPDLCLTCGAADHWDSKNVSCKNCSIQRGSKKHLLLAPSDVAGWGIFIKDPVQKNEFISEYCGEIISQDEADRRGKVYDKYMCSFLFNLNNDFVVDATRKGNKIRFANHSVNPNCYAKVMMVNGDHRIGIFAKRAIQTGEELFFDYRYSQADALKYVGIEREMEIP

B1: NXTAR: long non-coding RNA, 1476-nt transcript (SEQ ID NO: 58), expressed from retroviral or plasmid constructs (nucleic acid, listed as Homo sapiens)
chain: GGAAAAGGAAGGCTGCACAGAAGAACTGGCATTTGTGTTCTGCCTACAAAGCTGAAAAGGATTTCACCCAAATCAGGGAAGATCAGCCTTATGAGGTGGATATTATTGCCACAATAATTTTCCAGATGAAAAATGGAGGCCCAGAGATGTTAAGGAATTTGCCCAAGATCATGAAAAGACACTCTCCCCTATTGAGATGTCATGCAAGGATCAGTGCTGTGTGAAAATCCACATGAAGCAGGAAATGCAGGTGGTGGTGTCCAATCTGATTTCAAGATCTGAGAAGCTGTGCACTGCCTGAAAGGTATCTATTTAAGGTGTCACCAGACTCCTGCTCCACTCCTGCCCAAGGCCCAGCCCATCCAAGAGCAAAAGGCAAGTGGTGTTACAACCTTGGGATTTCCTGTATCTGCCCTCTTGCGGATAGCAGGACAGAGTCACAGCTGCATTAAATTCGCTTAAGACTTATTGAGACACTTCAACACTTCAACAACGACCTGTGAGATTAAGATTATTATTTTAAATTTACAGAAGGGGAAACTAAGAATTATAGACATGAAGTGACTCACCTATGACCACCTGGTGATAGAACCAGGACTAGAGCTCAGGTATGAAGATTTCTGGGGGAGTCCCTGAAAAAAAGGCTCCATATGGAATTACAATGTGGAAAAGGCCAAGGCCTCACCAACCCTTTTCTCTTCAACACCTGGATCCCTAAGTCCTTATTCGTAACCTCCTCTTTGGACAAGGTTTTGGTAGACAAAGCCAGAGCCTCTTGCACTGAGAAAGACAAATTCTCCTCTTGCAGTGAACCACAGGTAAATGCTCCAATAGAGAGTCCAAGCCAAACCTCCGGGTGTTATTCATGACCCAGGCAAGTCTGCTTTCTCATTCCCCCTATCTCTAGACCGTTTTCCATTTGGGCTTCCTTTTCTTCTTTTATCCTCAAAGAAACATGTTTCCTTCTAGTAGGTTTGGCTGCCACCACTAGGGTCCTGGCTACAACTGGCCCTCAGGTAACTCTCTCACCTCTGAGTTGGATAGTATCCTCTCTCGTCCCCATACACAAGTGTTTCTCTTCCCAGACACCTTCCTTACACAATTTCCCATTTCTTTCTCATCTCACCCTTGCTTTAATCAACATAGTTCTTTCCCCTGAGATTACTCTTCAGCCTTTCTTGTTGAAGCACTGCCCAGTGGTTCTCTTGGGATTTCCATTTCTCTCCCCTCAGCTCTCTTGGTACCAAATTCTGTAAGCTTCTCTGGTTTTTGGTTTCTCTTCCTTCTTTTCCTTCCAGGCAACATTTACTCAATCTAGGCTTGGATGATCAGGTACTTCTGCCAGCCTGCCCACTAGGGAACTCTGGGCTAGGAATATGTCTCAATGGCACCATTATATTTGGAAGGACGCTTCTGTATTTACACTGAACACACTAAAATACTAAACTTGAAGCCAAAATCCCCTCTCTGGCTCCA
For the molecule B1, in the data set with purified EZH2, the “binding to purified EZH2” value was “considerable binding”. For the same molecule, the sensitivity to abiraterone result in the data set with VCaP and 22Rv1 cells (22Rv1 cells expressing NXTAR, 5 days) is recorded as “further sensitized them”. Moreover, in the data set on VCaP and 22Rv1 cells (VCaP and 22Rv1 cells expressing NXTAR), the “proliferation upon enzalutamide treatment” value is “significantly compromised proliferation”. For the same molecule, the proliferation result with VCaP and 22Rv1 cells (VCaP and 22Rv1 cells, NXTAR expression vs pBABE vector) was “severe loss of proliferation”. For the same molecule, in the data set on AR (setting [1]), the “AR mRNA level” value was “significant decrease in AR mRNA level”, the KLK3 expression result is “significant loss of expression” and the TMPRSS2 expression entry is “significant loss of expression”. Moreover, the “AR and KLK3/PSA levels post-DHT-treatment” value with AR (LNCaP and 22Rv1 cells, DHT 10 nM overnight, NXTAR restoration) was “significantly compromised upon NXTAR restoration”. The AR levels result with AR (VCaP cells, NXTAR overexpression (rescue experiment)) is reported as “significant loss of AR levels”. Besides, in the data set with VCaP cells (NXTAR overexpressing vs vector-expressing VCaP cells), the tumor growth result is recorded as “significant reduction in tumor growth”. Moreover, the “AR protein levels in tumors” value in the data set with VCaP cells (immunoblotting of tumor lysates) is “significant reduction in AR protein levels”. The tumor burden result with VCaP cells (tumor weights and volume) was “significantly reduced”.
